Laboratory results taken from US20220401476A1.

Experiments:
[1] = target: CD19 surface antigen on Raji lymphoma target-cells (#CCL-86, ATCC) (UniProt P15391); test: cell-based or functional assay
[2] = target: rhIL-18 (IL-18, #9124-IL-010, R&D Systems) (human) (UniProt Q14116); test: cell-based or functional assay
Chain of UniProt Q14116 (Q14116 37-193 limits assumed): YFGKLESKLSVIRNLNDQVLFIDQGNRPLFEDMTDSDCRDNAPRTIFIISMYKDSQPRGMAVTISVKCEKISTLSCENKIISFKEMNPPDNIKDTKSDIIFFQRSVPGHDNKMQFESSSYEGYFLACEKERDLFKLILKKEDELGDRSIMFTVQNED

Chain of UniProt P15391 (P15391 20-556 limits assumed): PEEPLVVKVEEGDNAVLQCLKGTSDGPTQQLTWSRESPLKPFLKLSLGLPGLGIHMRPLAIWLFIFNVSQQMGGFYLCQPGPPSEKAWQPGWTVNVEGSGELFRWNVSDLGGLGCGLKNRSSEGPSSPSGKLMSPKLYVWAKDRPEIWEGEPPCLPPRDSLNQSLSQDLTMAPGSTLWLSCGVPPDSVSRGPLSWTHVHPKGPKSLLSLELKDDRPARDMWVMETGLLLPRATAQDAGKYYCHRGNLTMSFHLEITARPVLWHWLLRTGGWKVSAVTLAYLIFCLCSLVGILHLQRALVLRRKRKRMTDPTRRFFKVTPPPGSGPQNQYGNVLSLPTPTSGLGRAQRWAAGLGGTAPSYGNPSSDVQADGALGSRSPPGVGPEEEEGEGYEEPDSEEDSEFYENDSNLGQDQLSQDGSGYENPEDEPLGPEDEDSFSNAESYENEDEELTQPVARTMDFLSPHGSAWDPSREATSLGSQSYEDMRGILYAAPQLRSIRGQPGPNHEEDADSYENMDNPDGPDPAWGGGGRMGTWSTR

Row | Mean concentration (pg/mL) of IFN-γ in culture medium, Tumor + CAR-T, day 1 [1] [pg/mL] | Mean cumulative concentration (pg/mL) of IFN-γ in culture medium, Tumor + CAR-T, day 2 [1] [pg/mL] | Mean cumulative concentration (pg/mL) of IFN-γ in culture medium, Tumor + CAR-T, day 3 [1] [pg/mL] | IL-18BP-mediated inhibition (%) of IFN-γ in Tumor + CAR-T + IL-18 + IL-12 culture, day 1 [2] [%] | IL-18BP-mediated inhibition (%) of IFN-γ in Tumor + CAR-T + IL-18 + IL-12 culture, day 2 [2] [%] | IL-18BP-mediated inhibition (%) of IFN-γ in Tumor + CAR-T + IL-18 + IL-12 culture, day 3 [2] [%] | IL-18BP-mediated inhibition (%) of IFN-γ in Tumor + CAR-T + IL-18 culture, day 1 [2] [%] | IL-18BP-mediated inhibition (%) of IFN-γ in Tumor + CAR-T + IL-18 culture, day 2 [2] [%] | IL-18BP-mediated inhibition (%) of IFN-γ in Tumor + CAR-T + IL-18 culture, day 3 [2] [%] | reduction of IFN-γ production boosted by rhIL-12 and rhIL-18, average over three days [2] [%] | Substance
1 | 6910 | 21500 | 32700 | – | – | – | – | – | – | – | CD19-specific CAR of CD19SCFV-CD28-4-1BB-CD3 CAR-T-cells (#PM-CAR1003-10M, ProMAB)
2 | – | – | – | 82 | 79 | 75 | 100 | 92 | 79 | 80 | recombinant human IL-18BP (rhIL-18BP, Tadekinig alfa)
